The DeepSol protein solubility set

test: soluble on expression in E. coli; label from the status in PepcDB or PDB records

Sequence	soluble on expression in E. coli
MGSDKIHHHHHHMKFIHTSDWHIGRQLHNQSLLDDQAFVLEQIIALADEHKVDAVIVAGDIYDRSIPPANAVALLDDVLNRLVHDLGLQVIMIAGNHDGHERLGFAAKQMAASGLHIIGPLSADIHPITLSSSSGDVVFYPLPYAEPATVRQVFECEAASHEAAMTLLLEQVRQHDSQGLPKVVISHCFLDGGSESESERPLSIGGADKISPTLFTEFDYVALGHLHGPQYKGAEHVRYSGSILKYSFSEQHQHKSVTLVELSAQTPIKIRLLPLTSIRDVRILEGELATLLVQGKTDIKREDYLMVRLLDKHAILDAMGKLRAVYPNVLHLERTGLMAGQQQVTLSRDHIKKGEMDMFRDFFSQVSGESLTQAQQAVMDELLTKLHNEERQA	not soluble
MGSDKIHHHHHHMKVLHIFPSAFLGGSELCAIESIESLQKTGVENHVILPAEGAVINRLENLSVSYKIIQHNWWMSSKPWKTYLKVFMLKGFYSSAASIREYIKNNGIDVVITHSIVIPSGALGARLTNTPHVWYLHEYGDLDHQLKFEYGKSFSLNLINKLSKKIIVNSDALKKHFSKKLPAAKINRLYYSVNYPEFTPLTEKPSGELLLCMVGRIAKGKNQLVALKALALLKQEQIFPQLVFVGGADPDYLKLLEAYIKTHELEKQIAFAGQTDRPWDFVMRSQAVVVGSAMEAFGRVTVEAMKAGRIPIVSDTGAGPELITHNENGFLFDPEKEKQLAEIIKQIWLGTDFTEMTVQAKQYALAHFNSKLHGHELLKILTGLV	not soluble
MIDLDSLEHIGVLGKPHGVQGECNARLTADLSTLFEEEERLFLFFELDALPVPFRLIGYREKTDDITLLRFAGIESKEEMEQYTGVSLFMERRYFDTDSIEFTWEHFIGFTVFDREGCFVGTIDDVDESTLNVLLSITTPEGKELLLPVAEDLLEEIDVPNRKLTMIIPDGLLQLLEHHHHHH	soluble
MGSDKIHHHHHHMQIVQIEQAPKDYISDIKIIPSKSLLLITSWDGSLTVYKFDIQAKNVDLLQSLRYKHPLLCCNFIDNTDLQIYVGTVQGEILKVDLIGSPSFQALTNNEANLGICRICKYGDDKLIAASWDGLIEVIDPRNYGDGVIAVKNLNSNNTKVKNKIFTMDTNSSRLIVGMNNSQVQWFRLPLCEDDNGTIEESGLKYQIRDVALLPKEQEGYACSSIDGRVAVEFFDDQGDDYNSSKRFAFRCHRLNLKDTNLAYPVNSIEFSPRHKFLYTAGSDGIISCWNLQTRKKIKNFAKFNEDSVVKIACSDNILCLATSDDTFKTNAAIDQTIELNASSIYIIFDYEN	not soluble
MSIWCAVCNDLKPCEEATQLIPCLHTFCTKCLKKSTKKMRVCPVAHCYSSLTAPEPMTSTCEGENCQRKIMGNAEILRTACHHDICQHCYDLASRKEKSCCPALGCAELMIDEEDMICEGPCKKALVFDKTIVIPCCGARMCDVCGPKWTNGRDFCELGKCVNKESAKRRKSADATRQPCMGSLHCEGEVLRNFPSELECDHDVCIKCIGSMLDECEKNGKSPACPVKTCAIPYRCESVLALDAQFPEKKAFFSKFTLQAKFSMQTLKDDIVTNIIHGDLNTMNGQKFSLKIGQCDDDDGGMPMEFVREGTLGDLVRETRRVLKILPTDKIYGYYRIDDNKKSKLDVTKDTIRSSCSSLNINENTTVLVDTTGIVSRPKKQ	not soluble
MPTVSVKRDLLFQALGRTYTDEEFDELCFEFGLELDEITSEKEIISKEQGNVKAAGASDVVLYKIDVPANRYDLLCLEGLVRGLQVFKERIKAPVYKRVMPDGKIQKLIITEETAKIRPFAVAAVLRNIKFTKDRYDSFIELQEKLHQNICRKRALVAIGTHDLDTLSGPFTYTAKRPSDIKFKPLNKTKEYTACELMNIYKTDNHLKHYLHIIENKPLYPVIYDSNGVVLSMPPIINGDHSRITVNTRNIFIECTGTDFTKAKIVLDIIVTMFSEYCENQFTVEAAEVVFPNGKSHTFPELAYRKEMVRADLINKKVGIRETPENLAKLLTRMYLKSEVIGDGNQIEIEIPPTRADIIHACDIVEDAAIAYGYNNIQMTLPKTYTIANQFPLNKLTELLRHDMAAAGFTEALTFALCSQEDIADKLGVDISATKAVHISNPKTAEFQVARTTLLPGLLKTIAANRKMPLPLKLFEISDIVIKDSNTDVGAKNYRHLCAVYYNKNPGFEIIHGLLDRIMQLLDVPPGEDKGGYVIKASEGPAFFPGRCAEIFARGQSVGKLGVLHPDVITKFELTMPCSSLEINIGPFL	soluble
MKQFKIRSVLQSIALLVLAGTAAAEPKPEKITHGRFEQIPVLRPDGEPQRVVIWFSDAGHVDQRTRQAEILRQDGAMVALVDTTHLYKVLAADSNHCTFSVGDVENLSRYLQAYYRDKTYRLPLLVGDGDGSGLVYAVAAQATENILAGVVSDGLCPVVVPTQAVCGAGVASDQHLKPAPVAAPLLVMTVSSAHCPAQLTSGFVRKVALGREIRLAASADLLPRLRAALRVLGAQKGVSLPPPPADLDGLPVVEVPSKAQKKSDTFAIFVSGDGGWAEIDKKVAGHLADADIPVVGLDSLRYFWSERTPEGFAKDLDRIARFYAHHWKRNRLLLVGFSQGADVLPAAINKLSPNTRQIIRMTALLSLGKYAHYEFHVSNWISTDDEGIPIAPDMVKLRSTRTVCIYGVDDQETLCPSLPQQNRRVALPGTHHFNGDYETVAKTILAQMEAAPLEHHHHHH	not soluble
AVIGMNEAASALTPSRVSSLPDTQRAAWQEYLARSEAQLSRDKASLAAELAPGQPLPPPPAEGKGADTMPLDKPAAWYTSKAARHVADVIVSFQTPAGGWGKNQPRDGALRLPGQHYTGENVAKVKSGSNDLDAARDRDWHYVGTIDNDATVTEIRFLAQVVSQLAPEEAAPYRDAALKGIEYLLASQFPNGGWPQVWPLEGGYHDAITYNDDALVHVAELLSDIAAGRDGFGFVPPAIRTRALEATNAAIHCIVETQVVQDGKRLGWGQQHDALTLRPTSARNFEPAALSSTESARILLFLMEIEAPSDAVKQAIRGGVAWLNTSVIRDRAWVKSDQGYQLVTEQGAKPLWSRFYSLDGNKPVFGDRDKTIHDDVMGISQERRTGYAWYTTSPQKALSAFTKWEKRS	soluble
NSSAQLLELCTEHGLSISSLMMANELSLASEEEVKAKLWNIWQTMKTCIERGYQKEGILPGGLKLRRRAPALYRRLKAEGRNNVDPLTAMDWVDLFALSVNEQNAAGDRVVTAPTNGAAGIIPAVLCYYDTFVQEVDIDVCARYLLTAAAIGILYKKNASISGAEVGCQGEVGVACSMAAGALTEIMGGTVEHVENAAEIGMEHNLGLTCDPVGGLVQVPCIERNAMGAIKAINASRMALRGDGNHKVSLDKVIKTMMDTGKDMRSKYKETAKGGLAVN	not soluble
QDNALKQVAAMAKIADRYVSAWGSEAQVEDDTIRRLLASLGYDTSSDDALLQSAEKKHKKDVVDPVLVVHQGSAIEVPLYLGVSARESEFDWRLQTEQGEVLEGYLQSQIVRDERAEGGPLVFALPNDLPLGYHTLLIARKRRKAPYEMTLIVTPQACYKQPALAQ	not soluble
MSLTNNVIHLIPEIERILRIKYDDKQKELFYKINENNILVLTGFAGTGKSSVLNGLLNLFDKKNITYKLMSPTAKAAKRMEECTGKKASTIHRALGLAEGKFLVNEKNPFAEDVIIIDETSMVDIYLFLAVLKGIKNTTKLLCLGDYGQLESISAGNVLFDMIQGGIPCVKLEKIFRQKEDSSLLNVITNIRNGDNPLKNTHKTYLELGRDCKFWLGKKEQTLSRVLLCYKECLKHFSREDIMVLCPMKKGNSGVNKLNQELQKIANSQNTEELKLKDCAYKKEDLVMHIKNDYNANIFSEDCKDTIAKGIFNGDAGKIEKIDLENQKLYVSYDSGIVEYDNSNLNELMLSYALTIHKVQGSQSKVVIVALDMSHYKMLKRSLLYTAASRCVELLIFICDPKAFSIALNNNQVTHKNTFLGELLKISEGHHHHHH	not soluble
